Laboratory results published in patent US20220119490A1 (Genentech, published 2022).

T1: PD-L2 extracellular domain (human, UniProt Q9BQ51 20-220)
T1 construct: extracellular domain; ECD construct; also called PDCD1LG2; programmed cell death 1 ligand 2
T1 sequence (looked up): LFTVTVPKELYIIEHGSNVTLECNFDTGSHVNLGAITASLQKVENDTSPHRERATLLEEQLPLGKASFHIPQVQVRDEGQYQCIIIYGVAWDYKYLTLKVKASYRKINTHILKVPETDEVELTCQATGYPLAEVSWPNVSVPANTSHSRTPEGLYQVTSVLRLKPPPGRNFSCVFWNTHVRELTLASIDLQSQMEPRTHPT

T2: AXL extracellular domain (human, UniProt P30530 26-451)
T2 construct: extracellular domain; Biotinylated ectodomain on streptavidin sensors in BLI; streptavidin tetramer in the cell assay; also called UFO; tyrosine-protein kinase receptor AXL
T2 sequence (looked up): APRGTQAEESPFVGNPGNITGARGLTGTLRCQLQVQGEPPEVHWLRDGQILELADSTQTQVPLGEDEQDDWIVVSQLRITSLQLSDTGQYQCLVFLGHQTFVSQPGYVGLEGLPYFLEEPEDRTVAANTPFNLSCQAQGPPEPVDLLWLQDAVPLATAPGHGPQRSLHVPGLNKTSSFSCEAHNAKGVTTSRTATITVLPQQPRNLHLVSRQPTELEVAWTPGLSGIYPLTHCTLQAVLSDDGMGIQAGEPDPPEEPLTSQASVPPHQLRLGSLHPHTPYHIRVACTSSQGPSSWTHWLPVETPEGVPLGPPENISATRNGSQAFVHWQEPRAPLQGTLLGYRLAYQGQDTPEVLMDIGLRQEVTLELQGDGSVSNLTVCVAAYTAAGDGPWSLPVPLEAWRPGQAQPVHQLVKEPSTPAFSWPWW

B1: CHL1 extracellular domain (receptor, human, UniProt O00533 25-1082, looked up)
chain: IEIPSSVQQVPTIIKQSKVQVAFPFDEYFQIECEAKGNPEPTFSWTKDGNPFYFTDHRIIPSNNSGTFRIPNEGHISHFQGKYRCFASNKLGIAMSEEIEFIVPSVPKFPKEKIDPLEVEEGDPIVLPCNPPKGLPPLHIYWMNIELEHIEQDERVYMSQKGDLYFANVEEKDSRNDYCCFAAFPRLRTIVQKMPMKLTVNSSNSIKQRKPKLLLPPTESGSESSITILKGEILLLECFAEGLPTPQVDWNKIGGDLPKGRETKENYGKTLKIENVSYQDKGNYRCTASNFLGTATHDFHVIVEEPPRWTKKPQSAVYSTGSNGILLCEAEGEPQPTIKWRVNGSPVDNHPFAGDVVFPREISFTNLQPNHTAVYQCEASNVHGTILANANIDVVDVRPLIQTKDGENYATVVGYSAFLHCEFFASPEAVVSWQKVEEVKPLEGRRYHIYENGTLQINRTTEEDAGSYSCWVENAIGKTAVTANLDIRNATKLRVSPKNPRIPKLHMLELHCESKCDSHLKHSLKLSWSKDGEAFEINGTEDGRIIIDGANLTISNVTLEDQGIYCCSAHTALDSAADITQVTVLDVPDPPENLHLSERQNRSVRLTWEAGADHNSNISEYIVEFEGNKEEPGRWEELTRVQGKKTTVILPLAPFVRYQFRVIAVNEVGRSQPSQPSDHHETPPAAPDRNPQNIRVQASQPKEMIIKWEPLKSMEQNGPGLEYRVTWKPQGAPVEWEEETVTNHTLRVMTPAVYAPYDVKVQAINQLGSGPDPQSVTLYSGEDYPDTAPVIHGVDVINSTLVKVTWSTVPKDRVHGRLKGYQINWWKTKSLLDGRTHPKEVNILRFSGQRNSGMVPSLDAFSEFHLTVLAYNSKGAGPESEPYIFQTPEGVPEQPTFLKVIKVDKDTATLSWGLPKKLNGNLTGYLLQYQIINDTYEIGELNDINITTPSKPSWHLSNLNATTKYKFYLRACTSQGCGKPITEESSTLGEGSKGIGKISGVNLTQKTHPIEVFEPGAEHIVRLMTKNWGDNDSIFQDVIETRGREYAGLYDDISTQGW
notes: extracellular domain; Soluble query (streptavidin tetramer) in cell assays; recombinant protein (R&D) in SPR; also called neural cell adhesion molecule L1-like protein; close homolog of L1
B2: TNFRS11A_DNA742118 (receptor, human, UniProt Q9Y6Q6 30-212, looked up)
extracellular domain construct of the screen: IAPPCTSEKHYEHLGRCCNKCEPGKYMSSKCTTTSDSVCLPCGPDEYLDSWNEEDKCLLHKVCDTGKALVAVVAGNSTTPRRCACTAGYHWSQDCECCRRNTECAPGLGAQHPLQLNKDTVCKPCLAGYFSDAFSSTDKCRPWTNCTFLGKRVEHHGTEKSDAVCSSSLPARKPPNEPHVYLP
notes: extracellular domain; also called TNFRSF11A
B3: IL1RL1 extracellular domain (receptor, human, UniProt Q01638 19-328, looked up)
chain: KFSKQSWGLENEALIVRCPRQGKPSYTVDWYYSQTNKSIPTQERNRVFASGQLLKFLPAAVADSGIYTCIVRSPTFNRTGYANVTIYKKQSDCNVPDYLMYSTVSGSEKNSKIYCPTIDLYNWTAPLEWFKNCQALQGSRYRAHKSFLVIDNVMTEDAGDYTCKFIHNENGANYSVTATRSFTVKDEQGFSLFPVIGAPAQNEIKEVEIGKNANLTCSACFGKGTQFLAAVLWQLNGTKITDFGEPRIQQEEGQNQSFSNGLACLDMVLRIADVKEEDLLLQYDCLALNLHGLRRHTVRLSRKNPIDHHS
notes: extracellular domain; Soluble analyte in BLI
B4: CNTN5 expressed on cells (receptor, human, UniProt O94779 19-1072, looked up)
chain: EYSKSLPGLSTSYAALLRIKKSSSSSLFGSKTRPRYSSPSLGTLSASSPSWLGAAQNYYSPINLYHSSDAFKQDESVDYGPVFVQEPDDIIFPTDSDEKKVALNCEVRGNPVPSYRWLRNGTEIDLESDYRYSLIDGTFIISNPSEAKDSGHYQCLATNTVGSILSREATLQFAYLGNFSGRTRSAVSVREGQGVVLMCSPPPHSPEIIYSWVFNEFPSFVAEDSRRFISQETGNLYISKVQTSDVGSYICLVKNTVTNARVLSPPTPLTLRNDGVMGEYEPKIEVHFPFTVTAAKGTTVKMECFALGNPVPTITWMKVNGYIPSKARLRKSQAVLEIPNVQLDDAGIYECRAENSRGKNSFRGQLQVYTYPHWVEKLNDTQLDSGSPLRWECKATGKPRPTYRWLKNGVPLSPQSRVEMVNGVLMIHNVNQSDAGMYQCLAENKYGAIYASAELKILASAPTFALNQLKKTIIVTKDQEVVIECKPQGSPKPTISWKKGDRAVRENKRIAILPDGSLRILNASKSDEGKYVCRGENVFGSAEIIASLSVKEPTRIELTPKRTELTVGESIVLNCKAIHDASLDVTFYWTLKGQPIDFEEEGGHFESIRAQASSADLMIRNILLMHAGRYGCRVQTTADSVSDEAELLVRGPPGPPGIVIVEEITESTATLSWSPAADNHSPISSYNLQARSPFSLGWQTVKTVPEIITGDMESAMAVDLNPWVEYEFRVVATNPIGTGDPSTPSRMIRTNEAVPKTAPTNVSGRSGRRHELVIAWEPVSEEFQNGEGFGYIVAFRPNGTRGWKEKMVTSSEASKFIYRDESVPPLTPFEVKVGVYNNKGDGPFSQIVVICSAEGEPSAAPTDVKATSVSVSEILVAWKHIKESLGRPQGFEVGYWKDMEQEDTAETVKTRGNESFVILTGLEGNTLYHFTVRAYNGAGYGPPSSEVSATTKKSPPSQAPSNLRWEQQGSQVSLGWEPVIPLANESEVVGYKVFYRQEGHSNSQVIETQKLQAVVPLPDAGVYIIEVRAYSEGGDGTASSQIRVPSYSGGKITS
notes: whole, on cells; also called contactin 5

Key:
L1CAM expressed on cells = target: T3, L1CAM expressed on cells (human, UniProt P32004 20-1257); assay: cell surface interaction assay: streptavidin-tetramerized biotinylated ECD on transfected cells, immunofluorescence
T3 construct: whole, on cells; also called L1 cell adhesion molecule
T3 sequence (P32004 20-1257): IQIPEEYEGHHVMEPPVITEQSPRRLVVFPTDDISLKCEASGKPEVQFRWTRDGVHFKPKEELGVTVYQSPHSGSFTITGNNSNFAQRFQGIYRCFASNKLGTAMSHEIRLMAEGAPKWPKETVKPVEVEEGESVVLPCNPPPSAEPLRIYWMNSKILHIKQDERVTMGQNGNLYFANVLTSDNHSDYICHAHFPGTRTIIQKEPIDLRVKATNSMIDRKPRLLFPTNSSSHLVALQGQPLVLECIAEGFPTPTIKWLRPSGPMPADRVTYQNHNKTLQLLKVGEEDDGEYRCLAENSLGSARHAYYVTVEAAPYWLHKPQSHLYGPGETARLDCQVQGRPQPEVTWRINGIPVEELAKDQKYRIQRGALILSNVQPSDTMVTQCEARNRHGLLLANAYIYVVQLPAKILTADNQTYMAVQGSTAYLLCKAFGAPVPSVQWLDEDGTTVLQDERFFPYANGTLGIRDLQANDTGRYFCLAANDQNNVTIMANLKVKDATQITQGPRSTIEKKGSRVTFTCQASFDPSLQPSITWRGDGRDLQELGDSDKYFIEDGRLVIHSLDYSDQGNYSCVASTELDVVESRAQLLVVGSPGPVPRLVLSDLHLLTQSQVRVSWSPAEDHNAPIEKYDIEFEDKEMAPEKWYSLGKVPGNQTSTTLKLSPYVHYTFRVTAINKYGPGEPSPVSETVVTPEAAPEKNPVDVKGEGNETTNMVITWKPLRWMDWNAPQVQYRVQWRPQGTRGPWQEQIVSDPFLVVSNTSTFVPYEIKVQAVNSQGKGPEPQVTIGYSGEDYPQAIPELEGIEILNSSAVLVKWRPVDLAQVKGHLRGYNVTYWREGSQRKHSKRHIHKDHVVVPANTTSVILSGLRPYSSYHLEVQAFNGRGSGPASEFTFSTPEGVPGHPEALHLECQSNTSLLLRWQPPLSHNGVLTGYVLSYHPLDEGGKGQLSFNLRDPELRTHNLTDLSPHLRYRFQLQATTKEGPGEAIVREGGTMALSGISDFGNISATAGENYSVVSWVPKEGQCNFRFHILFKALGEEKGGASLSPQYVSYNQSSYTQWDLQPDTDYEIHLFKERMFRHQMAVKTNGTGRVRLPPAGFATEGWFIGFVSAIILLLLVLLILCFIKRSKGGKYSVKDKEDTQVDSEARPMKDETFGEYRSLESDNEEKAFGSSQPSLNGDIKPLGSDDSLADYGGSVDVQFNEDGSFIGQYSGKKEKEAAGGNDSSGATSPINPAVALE
Source text: FIG. 3H is a schematic showing the design of the cell surface interaction assay.

[1] = target: T1, PD-L2 extracellular domain; assay: extracellular interaction screen, normalized intensity; labelled dot against the clone named on the axis; which is query and which prey is not given; colour of the predicted class lost
AXL extracellular domain = target: T2, AXL extracellular domain; assay: biolayer interferometry, biotinylated AXL ectodomain on streptavidin sensors, IL1RL1 ectodomain in solution
Method: Interactions between AXL and the binding partners IL1RL1 and Gas6 were assayed by biolayer interferometry using an Octet Red system, as previously described (Husain et al., Mol Cell Proteomics, 18: 2310-2323, 2019). […] Data were analyzed using Forte Pall (Port Washington, N.Y.) software 9.0.

[2] = target: B1; assay: cell surface interaction assay: streptavidin-tetramerized biotinylated ECD on transfected cells, immunofluorescence

## B1
L1CAM expressed on cells
  binding result: binds

## B2
[1]
  binding result: binds

## B3
AXL extracellular domain
  binding result: binds

## B4
[2]
  binding result: binds
